# According to publication PMC6167752 (ACS infectious diseases, 2018):
# Tests used:
# AAC(2′)-Ia = AAC(2′)-Ia (Providencia stuartii, UniProt Q52424); assay: X-ray crystal structure; type: binding
# [1] = test system: CN[C@@H]1[C@@H](O)[C@@H](O[C@@H]2[C@@H](O)[C@H](O[C@H]3OC(CNCCO)=CC[C@H]3N)[C@@H](N)C[C@H]2NC(=O)[C@@H](O)CCN)OC[C@]1(C)O; assay: purified protein; type: biochemical, Providencia stuartii; conditions: 150 μM AcCoA, 25 mM MES pH 6, 25 °C
# AAC(2′)-Ia, sequence (Q52424 whole entry): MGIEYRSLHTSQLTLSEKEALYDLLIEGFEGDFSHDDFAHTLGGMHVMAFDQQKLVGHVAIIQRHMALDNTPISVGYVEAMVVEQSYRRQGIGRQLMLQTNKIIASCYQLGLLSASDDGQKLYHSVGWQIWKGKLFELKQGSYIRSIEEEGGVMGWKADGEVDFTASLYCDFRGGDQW
molecule,measurement,setting,value
CC(=O)SCCNC(=O)CCNC(=O)[C@H](O)C(C)(C)COP(=O)(O)OP(=O)(O)OC[C@H]1O[C@@H](n2cnc3c(N)ncnc32)[C@H](O)[C@@H]1OP(=O)(O)O [acetyl-coenzyme A],X-ray crystal structure,AAC(2′)-Ia; one molecule modelled,"one acetyl-coenzyme A, and three coenzyme A molecules was evident in difference density maps"
CC(C)(COP(=O)(O)OP(=O)(O)OC[C@H]1O[C@@H](n2cnc3c(N)ncnc32)[C@H](O)[C@@H]1OP(=O)(O)O)[C@@H](O)C(=O)NCCC(=O)NCCS [coenzyme A],X-ray crystal structure,AAC(2′)-Ia; active site,one dimer contained a coenzyme A bound to each active site
AAC(2′)-Ia (Providencia stuartii),Km,[1],370 ± 90 µM
same,kcat,[1],0.9 ± 0.1 s⁻¹
same,kcat/Km,[1],2400 M⁻¹ s⁻¹
